Measured values from US20170253633A1 (IMMATICS BIOTECHNOLOGIES, published 2017).
Non-standard residues stand in square brackets, D forms with d. No end group written: not given here. pS = N[C@@H](COP(=O)(O)O)C(=O)O

Biological target: T1, HLA-A*02:01 (human)
T1 construct: MHC monomer first loaded with a UV-sensitive peptide, which is cleaved by UV and exchanged with the test peptide; captured on streptavidin plates; also called peptide-receptive MHC molecules
Assay: UV-ligand exchange + anti-b2m ELISA; +++ = peptide exchange yield >50
From the text: (§1) Candidate peptides for T cell based therapies according to the present invention were further tested for their MHC binding capacity (affinity). The individual peptide-MHC complexes were produced by UV-ligand exchange, where a UV-sensitive peptide is cleaved upon UV-irradiation, and exchanged with the peptide of interest as analyzed. Only peptide candidates that can effectively bind and stabilize the peptide-receptive MHC molecules prevent dissociation of the MHC complexes. To determine the yield of the exchange reaction, an ELISA was performed based on the detection of the light chain (β2m) of stabilized MHC complexes. The assay was performed as generally described in Rodenko et al. (Rodenko et al., 2006).
(§2) 96 well MAXISorp plates (NUNC) were coated over night with 2 ug/ml streptavidin in PBS at room temperature, washed 4× and blocked forth at 37° C. in 2% BSA containing blocking buffer. Refolded HLA-A*02:01/MLA-001 monomers served as standards, covering the range of 15-500 ng/ml. Peptide-MHC monomers of the UV-exchange reaction were diluted 100 fold in blocking buffer. Samples were incubated for 1 h at 37° C., washed four times, incubated with 2 ug/ml HRP conjugated anti-β2m for 1 h at 37° C., washed again and detected with TMB solution that is stopped with […]. Absorption was measured at 450 nm. Candidate peptides that show a high exchange yield (preferably higher than 50%, most preferred higher than 75%) are generally preferred for a generation and production of antibodies or fragments thereof, and/or T cell receptors or fragments thereof, as they show sufficient avidity to the MHC molecules and prevent dissociation of the MHC complexes.

Row | Binder | peptide exchange yield
1 | LLQEGEVYSA (gene: PRPF8) | 50 to 75%
2 | SLDKGTLYI (gene: PLBD1) | 50 to 75%
3 | ILDEMRAQL (gene: OAS3) | 50 to 75%
4 | ALIGDDVGL (gene: C17orf85) | 50 to 75%
5 | NLHNSYYSV (gene: CCNG2) | 50 to 75%
6 | YLIGLDPENLAL (gene: CROT) | 50 to 75%
7 | ALDPASISV (gene: DCUN1D1) | 50 to 75%
8 | AVVSSVNTV (gene: SNCG) | 50 to 75%
9 | HLLDSKVPSV (gene: ITGB4) | 50 to 75%
10 | YLFPETEFI (gene: TBX3) | 50 to 75%
11 | NLDAATYQV (gene: SLC35A3) | 50 to 75%
12 | GLYEGLDWL (genes: ARF3, TRIM23, ARF1, ARF4) | 50 to 75%
13 | KLTNGIWVL (gene: AP1B1) | 50 to 75%
14 | SLQSFIHGV (gene: TMC7) | 50 to 75%
15 | ALADGVPVAL (gene: AP5B1) | 50 to 75%

The next lines start with the values.

Row | peptide exchange yield | Binder
16 | 50 to 75% | QMFEGQILDV (gene: AIM1L)
17 | 50 to 75% | ALLDEQQVNVLL (gene: ID1)
18 | 50 to 75% | LLDLIQTKV (genes: AP2B1, AP1B1)
19 | 50 to 75% | ALASLENHV (gene: TRIM33)
20 | 50 to 75% | RVISSVISV (gene: ELTD1)
21 | 50 to 75% | FLI[pS]LIISV (gene: TAS2R9) [FLIJLIISV]
22 | 50 to 75% | ILLDTPLFLL (gene: SERHL2)
23 | 50 to 75% | ALSFSSSAGPGLLKA (gene: KRT7)
24 | 50 to 75% | SLFTGLRSI (genes: DUOX2, DUOX1)
25 | 50 to 75% | FLDPATPRV (gene: TGIF1)
26 | 50 to 75% | GMTELYFQL (gene: PRKDC)
27 | 50 to 75% | TVGPGLLGV (gene: VWF)

Biological target: T1, HLA-A*02:01
Assay: UV-ligand exchange + anti-b2m ELISA; ++++ = peptide exchange yield >75%
From the text: as §1, §2

Row | Binder | peptide exchange yield
28 | SMFGAGLTV (gene: ATP6V0B) | > 75%
29 | ALFPHLLQPVL (gene: CSE1L) | > 75%
30 | TLTSKLYSL (gene: UQCR10) | > 75%
31 | VLKVFLENV | > 75%
32 | YTLSKTEFL (gene: S100A11) | > 75%
33 | GLWHGMFANV (gene: DIP2B) | > 75%
34 | FLDDGNQMLL (gene: DYNC2H1) | > 75%
35 | KVFGGFQVV (gene: HES1) | > 75%
36 | KLWGQSIQL (gene: SWT1) | > 75%
37 | SIAAYNPVV (gene: DHRS2) | > 75%
38 | YLPDSLTQL (gene: LRRC1) | > 75%
39 | SLFDGIATGL (gene: DNMT3A) | > 75%
40 | AMAELRVVV (gene: CYP4F22) | > 75%
41 | SLDVVNLLV (gene: ANKRD50) | > 75%
42 | YLDEIPPKFSM (gene: TACSTD2) | > 75%
43 | ILTSIQSLL (genes: UBE2A, UBE2B) | > 75%
44 | FVFEPPPGV (gene: DYNC1H1) | > 75%
45 | GVALTVTGV (gene: FLOT2) | > 75%
46 | IQDPVIFYV (gene: GPR126) | > 75%
47 | ILLQASVQV (gene: TMPRSS4) | > 75%
48 | ILEPSLYTV (gene: COPZ1) | > 75%
49 | IITDLLRSV (gene: FUBP1) | > 75%
50 | SLSDVRVIV (gene: RALGAPA2) | > 75%
51 | FLTPPLLSV (gene: AP2A1) | > 75%
52 | SLLGGITVV (gene: SPAG9) | > 75%

Now from value to binder:

Row | peptide exchange yield | Binder
53 | > 75% | ALLDGRVQL (gene: AGRN)
54 | > 75% | NLAGVYSEV (gene: DRG1)
55 | > 75% | GLDPLGYEIQL (gene: NUP107)
56 | > 75% | GLAHFVNEI (gene: ZMYM2)
57 | > 75% | YILEGEPGKV (gene: SRP68)
58 | > 75% | TLGVIPESV (gene: USP48)
59 | > 75% | GLIDSLMAYV (gene: PKP1)
60 | > 75% | FLIESKLLSL (gene: DRC1)
61 | > 75% | SLLRVGWSV (genes: BSCL2, HNRNPUL2)
62 | > 75% | GLALLYSGV (gene: ATP6V0B)
63 | > 75% | FIPDFAVAI (gene: COL6A3)
64 | > 75% | WLSTSIPEA (gene: FASN)
65 | > 75% | VILDKYYFL (gene: TMPRSS4)
66 | > 75% | YLARIQGFQV (gene: STAU2)
